Biological target: fkb1a_human FKBP1A (UniProt P62942)
Sequence (P62942 whole entry): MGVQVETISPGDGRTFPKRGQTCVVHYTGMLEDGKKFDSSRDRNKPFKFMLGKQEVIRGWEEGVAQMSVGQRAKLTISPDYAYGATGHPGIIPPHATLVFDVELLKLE

Ryanodine receptor 1 (Oryctolagus cuniculus (Rabbit)), P11716 S2843D
effect of a mutation on the interaction: disrupting interaction

Reference: IntAct's records for PubMed 12629052
